Measured values reported in the nanobody polyreactivity screen of Harvey et al. (2022).

Experiment: yeast display, Sf9 membrane polyspecificity reagent, FACS + sequencing; frameworks hold sequencing errors
Outline: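 Using colony PCR, genes from sorted yeast display clones were amplified, then sequenced on MiSeq at 2 × 250 and filtered by CDR length. The clones had been stained with 10% biotinylated, detergent-solubilized Sf9 membrane reagent for 1 hour at 4 °C and sorted by FACS into low and high (top ~1%) gates on anti-HA and streptavidin fluorescence. Polyreactivity labels come from the gate of origin.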

Sequence | polyreactivity (PSR sort gate)
QVQLVESGGGLVQAGGSLRLSCAASGITFNGYAMGWYRQAPGKERELVAAISSSGGRTRYADSVKGRFTISRDNAKNTVYLQMNSLKPEDTAVYYCNARGYGQSNYWGQGTQVTVSS | high polyreactivity
QVQLVESGGGLVQAGGSLRLSCAASGITFNKYAMGWYRQAPGKERELVAAISSRGGSTYYADSVKGRFTISRDNAKNTVYLQMNSLKPEDTAVYYCNADFYRASSNFDYWGQGTQVSVSS | high polyreactivity
QVQLVESGGGLVQAGGSLRLSCAASGITFNKYAMGWYRQAPGKERELVAAISSRGGSTYYADSVKGRFTISRDNAKNTVYLQMNSLKPEDTAVYYCNADVYRASNFDYWGQGTQVTVSS | high polyreactivity
QVQLVESGGGLVQAGGSLRLSCAASGITFNLNDMGWYRQAPGKERELVAAITSGGNTSYADSVKGRFTISRDNAKNTVDLQMNSLKPEDTAVYYCATEDFRTDTGMYYWGQGTQVTVSS | low polyreactivity
QVQLVESGGGLVQAGGSLRLSCAASGITFNLYAMGWYRQAPGKERELVAGITGGGSTYYADSVKGRFTISRDNAKNTVYLQMNSLTPEDTAVYYSTARRLGARYRGYYWGQGTQVTVSS | high polyreactivity
QVQLVESGGGLVQAGGSLRLSCAASGITFNRYALGWYRQAPGKERELVASIRWSGGSTNYADSVKGRFTISRDNGKNTVYLQMKSLKPEDTAVYYCNAGRESDDVYEGSQRIGQFDYWGQGTQVTVSS | low polyreactivity
QVQLVESGGGLVQAGGSLRLSCAASGITFNRYAMGWYRQAPGKERELVAGISRGVSTYYADSVKGRFTISRDNAKNTVYLQMKSLKPEDTAVYYCAAKPVVRYVSFGYDYWGQGTQVTVSS | high polyreactivity
QVQLVESGGGLVQAGGSLRLSCAASGITFNSNAMGWYRQAPGKERELVATISNGGSTNYADSVKGRFTISRDNAKNTVYLQMNSLKPEDTAVYDCNTRRGSLSGLYVYSIQGYDYWGQGTQVTVSS | low polyreactivity
QVQLVESGGGLVQAGGSLRLSCAASGITFNSYVMGWYRQAPGKERELVAAIRWSGGRTYYADSVKGRFTISRDNAKNTVYLQMNSLKPEDTAVYYCNRVTRSHVDYWGQGTQVTVSS | high polyreactivity
QVQLVESGGGLVQAGGSLRLSCAASGITFNTDTMGWYRQAPGKEWELVAAITLSGAGTYYADSVKGRFTISRDNAKNTVYLQMNSLKPEDTAVYYCAAYLSENRWPYVRYDYWGQGTQVTVSS | high polyreactivity
QVQLVESGGGLVQAGGSLRLSCAASGITFNYYVMGWYRQAPGKERELVAAIRRGGSTNYADSVKGRFTISRDNAKNPVYLQMNSLKPEDTAVYYCAARTYRGLAYDYWGQGTQVTVSS | high polyreactivity
QVQLVESGGGLVQAGGSLRLSCAASGITFPANAMGWYRQAPGKERELVAAISSSGGSTYYADSVKGRFTISRDNAKNTVYLQMNSLKPEDTAVYYCAAYYGPSRSLYYYWGQGTQVTVSS | high polyreactivity
QVQLVESGGGLVQAGGSLRLSCAASGITFPFYAMGWYRQAPGKERELVAAISWSDVDTYYADSVKGRFTISRDNAKNTVYLQMNSLKPEDTAVYYCAVSGVHPYWSDYEYWGQGTQVTVSS | low polyreactivity
QVQLVESGGGLVQAGGSLRLSCAASGITFPGNAMGWYRQAPGKERDLVAVISSGTSTNYADSVKGRFTISRDNAKNTVYLHMNSLKPEDTAVYYCAKATSSFYHYRYDYWGQGTQVTVSS | low polyreactivity
QVQLVESGGGLVQAGGSLRLSCAASGITFPLYAMGWYRQAPGKERELVATISGRGGSTYYADSVKGRFTISRDNAKNTVYLQMNSLKPEDTEVYYCNADFRSPYFLLSWYHSGDYWGQGTQVTVSS | low polyreactivity
QVQLVESGGGLVQAGGSLRLSCAASGITFPQNAMGWYRQAPGKERELVATIDNVGSTNYADSVKGRFTISRDNAKNTVYLQMNSLKPEDTAGYYCAKDYDWTLDYDGYPGYDYWGQGTQVTVSS | high polyreactivity
QVQLVESGGGLVQAGGSLRLSCAASGITFPRYAMGWYRQAPGKERELVARISWGGGRTYYADSVKGRFTISRDNAKNTVYLPMNSLKPEDTAVYYSAARTWADPYGYWGQGTQVTVSS | high polyreactivity
QVQLVESGGGLVQAGGSLRLSCAASGITFPSYAMGWYRQAPGKEWELVATISRGDSTYYADSVKGRFTISRDNAKNTVYLQMNSLKPEDTAVYYCNARWWFQLYYYSTFAGYNYWGQGTQVTVSS | low polyreactivity
QVQLVESGGGLVQAGGSLRLSCAASGITFPYYAMGWSRQAPGKERELVAAISSSGGSTYYADSVKGRFTISRDNAKNTVYLQLNSLKPEDTAVYYCAAQRYINYDYWGQGTQVTVSS | high polyreactivity
QVQLVESGGGLVQAGGSLRLSCAASGITFQANAMGWYRQAPGKERELVAAISSSDGSTYYADSVKGRFTISRDNAKNTVYLQMNSLKPEDTAVYYCNVDYAQRVFLYDYWGQGTQVTVSS | low polyreactivity
QVQLVESGGGLVQAGGSLRLSCAASGITFQGYTMGWYRQAPGKEWELVAAISSNGGRTYYADSVKGRFTISRDNAKNTVYLQMNSLKPEDTAVYYCAARSFWTYRSGGPSDYYYWGQGTQVTVSS | high polyreactivity
QVQLVESGGGLVQAGGSLRLSCAASGITFQSNTMGCYRQAPGKERELVAAITWTGGRTYYADSVKGRFTISRDNAKNTVYLQMNSLKPEDTAVYYCNADGYAIGYNGKLDYWGQGTQVTVSS | high polyreactivity

Sequence | polyreactivity (PSR sort gate)
QVQLVESGGGLVQAGGSLRLSCAASGITFQWYAMGWYRQAPGKERELVAGISSGGSTYYADSVKGRFTISRDNAKNTVYLQMNSLKPEDTAVYYCAADYGWYSPFYPSYKYEYWGQGTQVTVSS | low polyreactivity
QVQLVESGGGLVQAGGSLRLSCAASGITFRFNAMGWYRQAPGKEREFVAAITYSGDSTYYADSVKGRFTISRDNAKNTVYLQKNSLKPEDTAVYYCAADYYAISRRIFYYWGQGTQVTVSS | low polyreactivity
QVQLVESGGGLVQAGGSLRLSCAASGITFRGYTMGWYRQAPGKERELVARIRSSDGSTYYADSVKGRFTISRDNAKNTVYLQMNSLKPEDTAVYYCNADRRGRALKYYSWGQGTQVTVSS | low polyreactivity
QVQLVESGGGLVQAGGSLRLSCAASGITFRKYAMGWYRKAPGKERELVAAISVSGGSTYYADSVKGRFTISRDNAKNTVYLQMNSLKPEDTAVYYCATGRSTDKGYYYWGQGTQVTVSS | high polyreactivity
QVQLVESGGGLVQAGGSLRLSCAASGITFRRYTMGWYRQAPGKERELVAAITTNAGSTYYADSVKGRFTISRDNAKNTVYLQMNSLKPEDTAVYYCAARWYYPYRTRYSSSYGYWGQGTQVTVSS | high polyreactivity
QVQLVESGGGLVQAGGSLRLSCAASGITFRSYAMGWYRQAPGKDRELVAAISRTGGRTYYADSVKGRFTISRDNAKNTVYLQMNTLKAEDTAVYYCAAGGYSPYSLVGYDYWGQGTQVTVSS | high polyreactivity
QVQLVESGGGLVQAGGSLRLSCAASGITFRSYAMGWYRQAPGKERELVAAISTSGGRTYYADSVKGRFTISRDNAKNTVYLQMNSLKPEDTAVYYCNKVGAVYGYYAYGLGYWGQGTQVTVSS | high polyreactivity
QVQLVESGGGLVQAGGSLRLSCAASGITFRTNAMGSSRQAPGKERELVAAITTNGGNTYYADSVKGRFTISRDNAKNTVYLQMNSLKPEDTAVYYCNTATYVDSFPDPGDHWGQGTQVTVSS | low polyreactivity
QVQLVESGGGLVQAGGSLRLSCAASGITFRTNAMGWYRQAPGKERDLVAAIRTGYSTYYADSVKGRFTISRDNAKNPVYLQMNSLKPEDTAVYYCNAVRYSPVFRRKYDYWGQGTQVTVSS | high polyreactivity
QVQLVESGGGLVQAGGSLRLSCAASGITFRTNTMGWYRQAPGKERELVAAISRGGTSTYYADSVKGRFTISRDNAKNTVYLQMNSLKPEDTAVYYCAADTRFYSGRGTVSGDYWGQGTQVTVSS | low polyreactivity
QVQLVESGGGLVQAGGSLRLSCAASGITFRTNTMGWYRQAPGKERELVAAITRSGVTTYYADSVKGRFTISRDNAKNTVYLQMNSLKPEDTAVYYCAAKSFYAHYDYWGQGTQVTVSS | high polyreactivity
QVQLVESGGGLVQAGGSLRLSCAASGITFRTYAMGWYRQALGKERELVAVITWSGGRTYYADSVKGRFTISRDNANNTVYLQMHSLKPEDTAVYYCNALAYYIRYYYWGQGTQVTVSS | high polyreactivity
QVQLVESGGGLVQAGGSLRLSCAASGITFRTYAMGWYRQAPGKERELVAAITRGDSTYYADSVKGRFTISRDNAKNSVYLQMNSLKPEETAVYYCAKESYIVNSRYYTGKMYYWGQGTQVTVSS | low polyreactivity
QVQLVESGGGLVQAGGSLRLSCAASGITFRVYAMGWYRPAPGKERELVAAITSSGGSTYYADSVKGRFTISRDYAKNTVYLQMNSLKPEDTAVYYCNKVTYGYAYWRYDGYDYWGQGTQVTVSS | low polyreactivity
QVQLVESGGGLVQAGGSLRLSCAASGITFRVYVMGWYRQAPGKERELVAAITSGTSTYYADSVKGRITISRDNAKNTVYLQMNRLKPEDTAVYYCAALIFYGDYIEYDYWGQGTQVTVSS | low polyreactivity
QVQLVESGGGLVQAGGSLRLSCAASGITFRWYAMGWYRPAPGKEWELVAAMNSRGTSTYYADSVKGRFTISRDNAKNTVYLQMNSLKPEDTSVYYCAATYLYIHGGFRPQYDYWGQGTQVTVSS | high polyreactivity
QVQLVESGGGLVQAGGSLRLSCAASGITFRYYAMGWYRQAPGKERELVARITTDGSTHYADSVKGRFTISRDNAKNTVYLQMNSLKPEDTAVYYCNARHRNLAEYDYWGQGTQVTVSS | low polyreactivity
QVQLVESGGGLVQAGGSLRLSCAASGITFRYYAMGWYRQAPGKERELVATISRGVRTNYADSVKGRFTISRDNAKNTVYLQMNSLKPEDTAVYYCNADYASARRYDYWGQGTQVTVSS | high polyreactivity
QVQLVESGGGLVQAGGSLRLSCAASGITFSDYAMGWYRQAPGKERELVAGITSGGSTYYADSVKGRFTISRDNAKNTVYLQMNSLKPEDTAVYYCAAVRRWKYDWGQGTQVTVSS | high polyreactivity
QVQLVESGGGLVQAGGSLRLSCAASGITFSGHAMGWYRQAPGKERELVAAITGSGGGTYYADSVMGRFTISRDNAKNTVYLQMNCLKPEDTAVYYCNADNYYYSGFDYWGQGTQVTVSS | low polyreactivity
QVQLVESGGGLVQAGGSLRLSCAASGITFSGNAMGWYRPATGKERELVAGISRRGGSTYYADSVKGRFTISRDNAKNTVYLEMNSLKPEDTAVYYCARQFRRYYYAGYRYDYWGQGTQVTVSS | high polyreactivity
